This assay relates to whole blood samples (extrinsic coagulation pathway). The assay can be described thus: Thromboelastogram (TEG) coagulation test on disposable test strip. It counts as biochemical. The settings on record: blood samples with increasing concentrations, 0 to 1.8 nM; FIG. 19(b). The protocol:
The disposable test strips used in this example were incorporated with a reagent comprising of rabbit brain thromboplastin (Pacific Hemostasis Prothrombin Time reagent, Thromboplastin-DS, Product# 29-227-3), calcium chloride (25 mM) and Tween (2% v/v aqueous solution). Prior to the final assembly of the strip, the reagent was incorporated by dispensing the solution on to the exposed hydrophilic surface in the bottom stack, followed by air-drying in a drying box with humidity control at standard room temperature and pressure. The ratio of the volume of the reagent to blood tested in the chamber was maintained at close to 2:1 to ensure successful initiation of the blood coagulation reaction. […] Lastly, in some tests, blood samples were also tested using 2 Haemonetics' TEG-5000 instruments (2 tests per instrument) and their corresponding TEG curve & parameters were recorded, in order to perform side-by-side comparison with the results generated using the disposable test strips. Results: • In this example, the oscillation characteristics (amplitude and phase) of the in-plane vibration mode of a physical element in single-use disposable test strips were measured as a function of frequency in the vicinity of the resonance frequency, and these amplitude & phase frequency scans were monitored periodically to determine different aspects of the blood coagulation cascade. […]

B1: tPA: tissue plasminogen activator, enhances the external fibrinolysis process (protein, UniProt P00750 36-562, looked up)
Tissue-type plasminogen …: SYQVICRDEKTQMIYQQHQSWLRPVLRSNRVEYCWCNSGRAQCHSVPVKSCSEPRCFNGGTCQQALYFSDFVCQCPEGFAGKCCEIDTRATCYEDQGISYRGTWSTAESGAECTNWNSSALAQKPYSGRRPDAIRLGLGNHNYCRNPDRDSKPWCYVFKAGKYSSEFCSTPACSEGNSDCYFGNGSAYRGTHSLTESGASCLPWNSMILIGKVYTAQNPSAQALGLGKHNYCRNPDGDAKPWCHVLKNRRLTWEYCDVPSCSTCGLRQYSQPQFRIKGGLFADIASHPWQAAIFAKHRRSPGERFLCGGILISSCWILSAAHCFQERFPPHHLTVILGRTYRVVPGEEEQKFEVEKYIVHKEFDDDTYDNDIALLQLKSDSSRCAQESSVVRTVCLPPADLQLPDWTECELSGYGKHEALSPFYSERLKEAHVRLYPSSRCTSQHLLNRTVTDNMLCAGDTRSGGPQANLHDACQGDSGGPLVCLNDGRMTLVGIISWGLGCGQKDVPGVYTKVTNYLDWIRDNMRP
Regarding B1, the “fibrinolysis rate Lys-Rate” value is on record as “increasing trend”.

These data come from US20200256882A1, “FLUID PROPERTY MEASUREMENT DEVICES AND METHODS” (Abram Scientific, Inc., priority 2019, published 2020).
